From PMC5286426, “The Calcium-Dependent Switch Helix of L-Plastin Regulates Actin Bundling” (Scientific Reports, 2017)
“Also recorded” adds a separate entry of the source.

Columns and labels:
[1] = test system: Human platelet actin (F-actin); assay: Actin-bundling assay, low-speed centrifugation and SDS-PAGE; format: biochemical; details: 6 µM F-actin, n = 3 (Fig. 4a); for Amount of actin found in the pellet: 3 µM LPL construct, pH 7.5, room temperature, 1 h; for Amount of LPL found in the pellet: 3 µM LPL
Experimental: Human platelet actin (Cytoskeleton) was dissolved in 2 mM Tris pH7.5, 0.2 mM CaCl2, 0.2 mM ATP, and 0.5 mM DTT (Buffer G). The actin was then polymerized overnight at 4 °C in 20 mM Tris pH 7.5, 100 mM KCl, and 1 mM MgCl2. Spontaneously bundled F-actin was removed by centrifugation at 12,000 g for 15 min prior to the assay. F-actin and LPL constructs were incubated at room temperature for 1 h in 50 uL of the buffer containing 20 mM Tris pH7.5, 100 mM KCl, 1 mM MgCl2, 6 µM F-actin, 3 µM LPL construct, 0.1 mM CaCl2, 0.1 mM ATP with and without 5 mM EGTA. LPL induced actin bundles were sedimented by centrifugation at 12,000 g for 15 min and the supernatant was carefully removed. The amount of actin and/or LPL construct in the pellet was analyzed by SDS-PAGE. The effect of the presence of 12 µM melittin peptide on actin-bundling was also examined.

CaM = details: CaM-pull down; cited from earlier work
Text: The H5 region of LPL was previously predicted as a potential binding site for CaM[48]. Indeed this sequence produced a high theoretically predicted score for CaM binding. […] Therefore, we have tested the interaction between EF-H5 and CaM in the presence of EDTA. However, ...

[2] = cited from earlier work
Text: L-plastin (LPL) is a 70 kDa Ca^2+- and actin-binding protein that plays an important role in both the adaptive and innate immune system. Among the three isoforms found in humans (L-, T-, and I-plastin), LPL is exclusively expressed in cells of hematopoietic origin, where it can act as an actin cross-linker by promoting actin bundling. The actin-bundling activity of LPL is known to be calcium-dependent, where increasing calcium concentrations inhibit the formation of actin-bundles[9][10].

actin [3] = details: in vitro; cited from earlier work
Text: LPL is comprised of two N-terminal EF-hand motifs (head-piece domain), which are homologous to a single domain of calmodulin (CaM) (34.7% identical), followed by two actin-binding domains (ABDs)[5]. Each ABD consists of two independently folded calponin homology (CH) domains. While many signaling and cytoskeletal proteins share these CH domains, plastins are the only known proteins to have two tandem ABDs[31][32][33]. The four CH domains are each folded into a compact globular shape where the ABD1 and ABD2 are arranged back-to-back[34][35]. Each ABD can bind an actin-filament, thereby LPL ... || In order to further investigate the role of H5 in the Ca^2+-dependent actin-bundling of LPL, we have performed actin-bundling assays with a series of different LPL constructs (Fig. 4).

actin [4] = details: compared to the non-phosphorylated LPL protein; cited from earlier work
Text: In addition to the Ca^2+ switch, the targeting of LPL to the actin cytoskeleton is also regulated by the phosphorylation of Ser5[41]. Among all three human plastin isoforms, LPL is the only isoform that is currently known to be phosporylated in vivo[40]. Unlike other actin-binding proteins, where phosphorylation usually occurs in the actin-binding domain, LPL phosphorylation seems to take place on the regulatory Ca^2+-binding domain. […] They hypothesized ...

B1: LPL: 70 kDa Ca^2+- and actin-binding protein, full-length human L-plastin (protein)
chain: MARGSVSDEEMMELREAFAKVDTDGNGYISFNELNDLFKAACLPLPGYRVREITENLMATGDLDQDGRISFDEFIKIFHGLKSTDVAKTFRKAINKKEGICAIGGTSEQSSVGTQHSYSEEEKYAFVNWINKALENDPDCRHVIPMNPNTNDLFNAVGDGIVLCKMINLSVPDTIDERTINKKKLTPFTIQENLNLALNSASAIGCHVVNIGAEDLKEGKPYLVLGLLWQVIKIGLFADIELSRNEALIALLREGESLEDLMKLSPEELLLRWANYHLENAGCNKIGNFSTDIKDSKAYYHLLEQVAPKGDEEGVPAVVIDMSGLREKDDIQRAECMLQQAERLGCRQFVTATDVVRGNPKLNLAFIANLFNRYPALHKPENQDIDWGALEGETREERTFRNWMNSLGVNPRVNHLYSDLSDALVIFQLYEKIKVPVDWNRVNKPPYPKLGGNMKKLENCNYAVELGKNQAKFSLVGIGGQDLNEGNRTLTLALIWQLMRRYTLNILEEIGGGQKVNDDIIVNWVNETLREAKKSSSISSFKDPKISTSLPVLDLIDAIQPGSINYDLLKTENLNDDEKLNNAKYAISMARKIGARVYALPEDLVEVNPKMVMTVFACLMGKGMKRV
modifications: left off: GST, end not stated, cleaved
- Amount of actin found in the pellet ([1]; in the presence of Ca^2+ (0.1 mM CaCl2)): ~ 50%
- Amount of actin found in the pellet ([1]; in the presence of EGTA, 5 mM EGTA): ~ 90%
- Amount of LPL found in the pellet ([1]; with Ca^2+): ~ 50%
- Amount of LPL found in the pellet ([1]; with EGTA): ~ 70%
- Direct binding to CaM (CaM): only seen in the absence of Ca^2+
- Sensitivity to intracellular Ca^2+-signals [2]: optimal Ca^2+-binding affinity to respond to intracellular Ca^2+-signals

B2: T-plastin: plastin isoform from solid tissues, such as fibroblasts and epithelial cells (protein, UniProt P13797 1-630, looked up)
Plastin-3: MDEMATTQISKDELDELKEAFAKVDLNSNGFICDYELHELFKEANMPLPGYKVREIIQKLMLDGDRNKDGKISFDEFVYIFQEVKSSDIAKTFRKAINRKEGICALGGTSELSSEGTQHSYSEEEKYAFVNWINKALENDPDCRHVIPMNPNTDDLFKAVGDGIVLCKMINLSVPDTIDERAINKKKLTPFIIQENLNLALNSASAIGCHVVNIGAEDLRAGKPHLVLGLLWQIIKIGLFADIELSRNEALAALLRDGETLEELMKLSPEELLLRWANFHLENSGWQKINNFSADIKDSKAYFHLLNQIAPKGQKEGEPRIDINMSGFNETDDLKRAESMLQQADKLGCRQFVTPADVVSGNPKLNLAFVANLFNKYPALTKPENQDIDWTLLEGETREERTFRNWMNSLGVNPHVNHLYADLQDALVILQLYERIKVPVDWSKVNKPPYPKLGANMKKLENCNYAVELGKHPAKFSLVGIGGQDLNDGNQTLTLALVWQLMRRYTLNVLEDLGDGQKANDDIIVNWVNRTLSEAGKSTSIQSFKDKTISSSLAVVDLIDAIQPGCINYDLVKSGNLTEDDKHNNAKYAVSMARRIGARVYALPEDLVEVKPKMVMTVFACLMGRGMKRV
- Sensitivity to intracellular Ca^2+-signals [2]: relatively insensitive

B3: ABD1: actin-binding domain 1 of LPL (residues 113–379) (protein, UniProt P13796 113-379, looked up, fragment)
chain: GTQHSYSEEEKYAFVNWINKALENDPDCRHVIPMNPNTNDLFNAVGDGIVLCKMINLSVPDTIDERTINKKKLTPFTIQENLNLALNSASAIGCHVVNIGAEDLKEGKPYLVLGLLWQVIKIGLFADIELSRNEALIALLREGESLEDLMKLSPEELLLRWANYHLENAGCNKIGNFSTDIKDSKAYYHLLEQVAPKGDEEGVPAVVIDMSGLREKDDIQRAECMLQQAERLGCRQFVTATDVVRGNPKLNLAFIANLFNRYPALHK
modifications: actin-binding domain 1
- Actin binding of ABD1 relative to ABD2 (actin [3]): an order of magnitude stronger than ABD2; also recorded: ten times stronger than ABD2

B4: S5E mutant: LPL S5E mutant of Janji and coworkers (protein, UniProt P13796 2-627, looked up, variant S5E)
Plastin-2: ARGEVSDEEMMELREAFAKVDTDGNGYISFNELNDLFKAACLPLPGYRVREITENLMATGDLDQDGRISFDEFIKIFHGLKSTDVAKTFRKAINKKEGICAIGGTSEQSSVGTQHSYSEEEKYAFVNWINKALENDPDCRHVIPMNPNTNDLFNAVGDGIVLCKMINLSVPDTIDERTINKKKLTPFTIQENLNLALNSASAIGCHVVNIGAEDLKEGKPYLVLGLLWQVIKIGLFADIELSRNEALIALLREGESLEDLMKLSPEELLLRWANYHLENAGCNKIGNFSTDIKDSKAYYHLLEQVAPKGDEEGVPAVVIDMSGLREKDDIQRAECMLQQAERLGCRQFVTATDVVRGNPKLNLAFIANLFNRYPALHKPENQDIDWGALEGETREERTFRNWMNSLGVNPRVNHLYSDLSDALVIFQLYEKIKVPVDWNRVNKPPYPKLGGNMKKLENCNYAVELGKNQAKFSLVGIGGQDLNEGNRTLTLALIWQLMRRYTLNILEEIGGGQKVNDDIIVNWVNETLREAKKSSSISSFKDPKISTSLPVLDLIDAIQPGSINYDLLKTENLNDDEKLNNAKYAISMARKIGARVYALPEDLVEVNPKMVMTVFACLMGKGMKRV
- Actin bundling activity (actin [4]): increased actin bundling activity
